Results taken from patent US11407840B2, “Antibodies to M(H)DM2/4 and their use in diagnosing and treating cancer” (NomoCan Pharmaceuticals LLC, priority 2017, dated 2022).
Each block holds one molecule with its values, some of them ahead of it.

Experiments:
[1] = tested on: plasma membrane M(H)DM2/4; experiment: Plasma membrane M(H)DM2/4 after chemotherapeutic agents in vitro; format: cell-based; conditions: data not shown
[2] = tested on: human pancreatic cancer MIA PaCa-2 cells; experiment: Cell-ELISA, intact cells; format: binding
Procedure: (§1) Cell-ELISA Methodology: 8,000-10,000 cells/well of a 96-well microplate were grown overnight. The next day, unbound cells were washed off with sterile 1× PBS. The cells in each well were fixed with freshly prepared 4% buffered paraformaldehyde (pH 7.2) for 1 hour followed by 3 washes with 1× PBS. The wells were then blocked with 5% BSA in PBS (100 ? /well) for 2 hours at room temperature. Microplate wells were then washed 5 times with 300 ? of ice cold 1× PBS. MAbs NMC-103, NMC-204 or NMC-303 at 1 μg/mL in 1% BSA/PBS were then incubated with various cancer or normal untransformed cells for 2 hours at room temperature. Wells were then washed with 300 ? of ice-cold 1× PBS for 5 times and corresponding secondary antibody HRP-GaM F(ab′)2 diluted 1:2500 or 1:5000 in PBS with 1% BSA were added at 100 ? /well for 1 hour at room temperature followed by washing 5 times with 300 ? of ice-cold 1× PBS. TMB Substrate Solution (1-StepTM Ultra TMB-ELISA, ThermoFisher, Cat. No. 34028) was then added at 50 ? ? to each microplate well and incubated at room temperature for 30 minutes. The reaction was stopped by addition of 50 μL, of stop solution (ThermoFisher, Cat. No. SSO4) to each well and absorbance of each well was measured at OD450 nm. The absorbance value of each experimental well was corrected for the absorbance value obtained from wells treated with isotype-identical mAbs included in each experiment. The results are thus expressed as “relative binding”.

[3] = tested on: human, murine, rabbit protein; set-up: key: H—binds to human protein; M—binds to murine protein; R—binds to rabbit protein; conditions: Table 10; cited from earlier work
[4] = biological target: T1, recombinant full-length HDM2 protein (GST tagged) (Homo sapiens, UniProt Q00987); experiment: Western blot (immunoblot); format: binding; conditions: 1 μg/well protein; band at approximately 83 kD; FIG. 2
T1 construct: reacted with the recombinant full-length HDM2 protein; purchased Abcam ab188727
Procedure: Western Blot: As for immunoblots, 1 μg/well of recombinant FIDM2 protein (GST tagged, Abeam, Cat. No. ab188727) was separated on 8-16% sodium dodecyl sulfate (SDS) polyacrylamide gel and proteins were then transferred to polyvinylidene difluoride (PVDF) membrane. The membrane was blocked with 5% milk followed by incubation with monoclonal antibody NMC-103, NMC-204 or NMC-303 at 1 μg/πι ? in 1% milk in PBS for 2 hours. The membrane was then washed×3 times (10 minutes each) and incubated for 1 hour with corresponding HRP-conjugated secondary antibody (Goat anti-Mouse IgG (H&L), F(ab′)2 Frag Cross-adsorbed HRP (HRP-GaM F(ab′)2), ThermoFisher, Cat. No. A24524) diluted 1:5000 in 1% BSA-PBS. The membrane was then washed×3 times and incubated with Pierce ECL Plus Western Blotting Substrate (ThermoFisher, Cat. No. #32132) for 10 min before developing on a LICOR Scanner.

[5] = tested on: human breast cancer MCF-7 cells; experiment: Cell-ELISA, intact cells; format: binding; conditions: mAb 1 μg/mL, FIGS. 3-5
Procedure: as §1

[6] = tested on: normal human peripheral blood mononuclear cells (PBMCs); experiment: Cell-ELISA, intact normal cells; format: binding; conditions: freshly isolated PBMCs; FIG. 6
Procedure: as §1

[7] = biological target: NMC-P3 peptide (SEQ ID NO:3), amino acids 475-491 of HDM2 (Homo sapiens, UniProt Q00987); experiment: Peptide-ELISA, NMC-P3 peptide; format: binding; conditions: 5 μg/ml peptide dried on plate; OD 450 nm
Procedure: Peptide-ELISA Methodology: 5 μg/ml of NMC-P1, NMC-P2 or NMC-P3 peptide antigen was dried onto a 96-well ELISA plate overnight. Plates were then blocked with 5% BSA in 1× phosphate-buffered saline (PBS) (100 ? /well) for 2 hours at room temperature. Microplate wells were then washed 5 times with 300 ? of ice cold 1× PBS. Appropriate dilutions of monoclonal antibodies NMC-103, NMC-204 or NMC-303 in 1% bovine serum albumin (BSA) in PBS solution were then incubated with their corresponding peptides (NMC-P1, NMC-P2 or NMC-P3, respectively) at room temperature. After 2 hours, wells were washed 5 times with 300 ? ? ice-cold PBS/well and 100 ? secondary antibody (HRP-labeled Goat anti-Mouse F(ab′)2 H&L cross-adsorbed secondary antibody (HRP-GaM F(ab′)2), ThermoFisher, Cat. No. A24524) diluted 1:2500 to 1:5000 in PBS-1% BSA solution were added and the incubation continued at room temperature. After 1 hour, the wells were washed again 5 times with 200 ? of ice-cold PBS and 50 μiL of the TMB Substrate Solution (1-StepTM Ultra TMB-ELISA, ThermoFisher, Cat. No. 34028) were added to each well and color was allowed to develop for 30 minutes at room temperature. The reaction was stopped by addition of 50 μ ? ? of stop solution (ThermoFisher, Cat. No. SSO4) to each well and absorbance of each well was read immediately for optical density (OD) at 450 nm.

[8] = tested on: CT-26 (subcutaneous tumors); experiment: CT-26 syngeneic mouse model of colon cancer; format: in vivo, mouse (BALB/c); conditions: day 24 post tumor inoculation; 10 mg/kg two times a week for 3 weeks; n=4; FIG. 32A
Procedure: Utilizing another syngeneic mouse model of colon cancer, CT-26 (Selby et al., 2016, PLoS One. 9; 11(9): e0161779), the anti-tumor efficacy of a chimeric version of monoclonal antibody NMC-303 was assessed. To create the chimeric version of monoclonal antibody NMC-303, isotype class-switching was performed on a mouse NMC-303 (having heavy variable regions of SEQ ID NO:40 and light chain variable regions of SEQ ID NO:41) to convert it from a mouse IgM to a chimeric IgG1. The mouse Heavy and Light chain variable regions (SEQ ID NO:40 and SEQ ID NO:41, respectively) were cloned into a human Ig gamma-1 chain and human Ig kappa chain as constant region. A total of eight (8) BALB/c mice were injected subcutaneously with CT-26 (800,000 cells/mouse). Mice were then divided into two groups (n=4) that received: A) control antibody (10 mg/kg) or B) the chimeric version of monoclonal antibody NMC-303 (10 mg/kg) two times a week for 3 weeks. […] Due to the human constant region of the chimeric version of the monoclonal antibody NMC-303, the anti-tumor efficacy of this antibody might be improved if tested in mouse models with human immune background. The above in vivo results further support the anti-tumor efficacy of antibodies raised against NMC-P3 immunogen that target the extracellularly accessible epitopes of the M(H)DM2/4 on cancer cells.

T1 sequence (Q00987 whole entry): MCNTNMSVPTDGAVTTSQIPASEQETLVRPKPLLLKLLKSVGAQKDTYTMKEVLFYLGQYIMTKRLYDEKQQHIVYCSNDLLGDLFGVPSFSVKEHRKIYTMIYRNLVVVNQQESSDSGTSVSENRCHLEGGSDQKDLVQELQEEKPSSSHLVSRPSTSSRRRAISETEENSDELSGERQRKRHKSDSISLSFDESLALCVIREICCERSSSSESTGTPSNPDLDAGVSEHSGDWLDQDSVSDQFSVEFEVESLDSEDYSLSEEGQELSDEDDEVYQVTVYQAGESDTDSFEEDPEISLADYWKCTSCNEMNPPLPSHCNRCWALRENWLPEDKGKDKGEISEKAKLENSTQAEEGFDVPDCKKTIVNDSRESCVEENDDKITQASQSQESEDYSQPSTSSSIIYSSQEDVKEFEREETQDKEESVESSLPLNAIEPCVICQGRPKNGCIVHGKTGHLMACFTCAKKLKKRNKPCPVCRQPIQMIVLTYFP

Molecule: Nc1ccn([C@@H]2O[C@H](CO)[C@@H](O)C2(F)F)c(=O)n1 [Gemcitabine]
- plasma membrane M(H)DM2/4 of treated cells [1]: increase

Molecule: CC(=O)O[C@H]1C(=O)[C@@]2(C)[C@H]([C@H](OC(=O)c3ccccc3)[C@]3(O)C[C@H](OC(=O)[C@H](O)[C@@H](NC(=O)c4ccccc4)c4ccccc4)C(C)=C1C3(C)C)[C@]1(OC(C)=O)CO[C@@H]1C[C@@H]2O [Paclitaxel]
- plasma membrane M(H)DM2/4 of treated cells [1]: increase

Molecule: Cytochrome C [reference compound]
- binding to intact, EDTA-released MiaPaCa-2 cells, cell-ELISA ([2]; EDTA 10 mmols, pH 7.2, 5 min, 37° C., FIG. 10): only minimal binding
- Species Reactivity [3]: H

- reactivity with recombinant full-length HDM2-GST protein in immunoblot [4]: reacted
- binding to NMC-P3 peptide (peptide-ELISA) [7]: bound
B1: NMC-303: mouse monoclonal antibody, IgM isotype, binds NMC-P3 (SEQ ID NO:3); VH SEQ ID NO:40, VL SEQ ID NO:41 (antibody, V domains shown)
VH: QVQLQQPGAELVKPGASVKLSCKASGYTFTSYYMYWVKQRPGQGLEWIGGINPRNGGTNFNEKFKNKATLTADKSSTTAYMQLSSLTSEDSAVYYCTRSGYYAMDYWGQGTSVTVSS
VL: DIQMTQTTSSLSASLGDRVTISCRASQDISNFLNWYQQKPDGTVKLLIYYTSRLHSGVPSRFSGSGSGTDYSLTISNLEQEDIATYFCQQGNTLPRTFGGGTKLEIK
modifications: mAb NMC-303 Heavy Chain Variable Region; mAb NMC-303 Light Chain Variable Region
- relative binding (reactivity) to intact cells, cell-ELISA [5]: reactivity
- binding to intact MIA PaCa-2 cells when competed with NMC-P3 peptide ([2]; FIG. 8C): competed
- relative binding (reactivity) to intact cells, cell-ELISA ([2]; MIA PaCa-2, mAb 1 μg/mL, FIGS. 3-5): reactivity
- binding to intact normal human PBMCs, cell-ELISA [6]: virtually no binding

B2: chimeric version of monoclonal antibody NMC-303: chimeric IgG1: mouse NMC-303 variable regions cloned into human Ig gamma-1 chain and human Ig kappa chain constant regions (antibody, V domains shown)
VH: B1 VH
VL: B1 VL
modifications: human IgG1 and kappa constant regions lack entries; mAb NMC-303 Heavy Chain Variable Region; mAb NMC-303 Light Chain Variable Region
notes: chimeric IgG1: mouse NMC-303 variable regions cloned into human Ig gamma-1 chain and human Ig kappa chain constant regions
- average tumor size [8]: 726 mm^3
